B3: Staphylococcus aureus Pdx1 (PLP synthase subunit) (enzyme, S. aureus, UniProt A5IQ72 1-295, looked up)
chain: MSKIIGSDRVKRGMAEMQKGGVIMDVVNAEQARIAEEAGAVAVMALERVPSDIRAAGGVARMANPKIVEEVMNAVSIPVMAKARIGHITEARVLEAMGVDYIDESEVLTPADEEYHLRKDQFTVPFVCGCRNLGEAARRIGEGAAMLRTKGEPGTGNIVEAVRHMRQVNSEVSRLTVMNDDEIMTFAKDIGAPYEILKQIKDNGRLPVVNFAAGGVATPQDAALMMELGADGVFVGSGIFKSEDPEKFAKAIVQATTHYQDYELIGRLASELGTAMKGLDINQLSLEERMQERGW
notes: Pdx1 of S. aureus; Cloned into both pETM11/LIC (6xHis-TEV) and pETTRXA-1a/LIC (6xHis-TRX-TEV); Forms hexamers or dodecamers depending on the buffer; also called SaPdx1; source: E. coli Rosetta (DE3), purified (Ni-NTA, TEV cleavage, second Ni-NTA, SEC on Superdex 200); not shown: His6, N-terminal, cleaved

In series [1] the target is T1, SaPLP synthase (SaPdx1 + SaPdx2) (Staphylococcus aureus, UniProt Q2G0Q1).
T1 construct: gene pdxS; wild-type complex of separately expressed subunits, E. coli Rosetta (DE3), N-terminal His tags TEV-cleaved; up to 24-mer, substoichiometric in Pdx2 at rest, 12:12 in catalysis; with Pyridoxal 5'-phosphate synthase subunit PdxT
T1 sequence (Q2G0Q1 1-295): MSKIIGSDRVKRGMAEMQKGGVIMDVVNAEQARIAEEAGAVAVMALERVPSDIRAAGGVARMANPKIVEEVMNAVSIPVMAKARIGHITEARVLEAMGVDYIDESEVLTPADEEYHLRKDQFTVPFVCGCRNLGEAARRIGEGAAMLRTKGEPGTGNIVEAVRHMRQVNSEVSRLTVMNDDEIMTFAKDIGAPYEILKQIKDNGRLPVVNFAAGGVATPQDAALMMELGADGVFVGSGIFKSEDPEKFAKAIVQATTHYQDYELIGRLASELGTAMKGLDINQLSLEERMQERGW
T1 sequence (Q2G0Q0 1-186 partner): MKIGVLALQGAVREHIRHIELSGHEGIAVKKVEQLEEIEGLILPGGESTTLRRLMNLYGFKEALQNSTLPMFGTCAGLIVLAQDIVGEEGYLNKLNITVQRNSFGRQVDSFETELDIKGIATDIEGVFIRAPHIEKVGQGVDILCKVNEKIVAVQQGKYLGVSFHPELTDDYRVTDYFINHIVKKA
The series is described as follows: PLP Schiff base with Tris, absorbance […] nm. It counts as biochemical. As to conditions: with R5P (1 mM in standard mix) and 20 mM glutamine, 40 uM Pdx1 and 40 uM Pdx2, 50 mM Tris-HCl pH 8, 150 mM NaCl, 37 °C; apparent; substrate inhibition at high G3P.

For a further series, the target named is T2, SaPdx1 (Staphylococcus aureus, UniProt Q2G0Q1).
T2 construct: gene pdxS; synthetic gene, E. coli Rosetta (DE3), N-terminal 6xHis (TRX)-TEV tag cleaved; 297 residues printed; hexamer/dodecamer, dodecamer active; assayed without Pdx2, with ammonium sulfate
T2 sequence (Q2G0Q1 1-295): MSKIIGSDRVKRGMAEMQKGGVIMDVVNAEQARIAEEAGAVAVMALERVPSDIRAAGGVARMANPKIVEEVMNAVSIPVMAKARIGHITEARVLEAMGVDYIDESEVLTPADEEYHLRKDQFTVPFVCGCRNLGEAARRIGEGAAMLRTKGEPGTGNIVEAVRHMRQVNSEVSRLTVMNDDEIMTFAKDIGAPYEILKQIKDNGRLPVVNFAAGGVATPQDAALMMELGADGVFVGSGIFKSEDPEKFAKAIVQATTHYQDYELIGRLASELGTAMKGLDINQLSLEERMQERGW
The series is described as follows: PLP Schiff base with Tris, absorbance […] nm. It is filed as biochemical. Conditions: with R5P (1 mM in standard mix) and 20 mM ammonium sulfate, 40 uM enzyme, 50 mM Tris-HCl pH 8, 150 mM NaCl, 37 °C; apparent; substrate inhibition at high G3P.

In series [2] the target is B3. Put plainly: cell-based or functional assay.
Series [3] concerns the target B3. Put plainly: SAXS; SEC-SAXS of the SaPdx1-SaPdx2 complexes (WT and mutant), 7 mg/ml, Superose 6 Increase 10/300; volume fractions of stoichiometries estimated with OLIGOMER from AF2-based models. Conditions: both partners purified.
Series [4] concerns the molecule itself. Put plainly: SEC + other: dynamic light scattering; SaPdx1 purified in Tris-HCl buffer.

For orientation: stoichiometry N means the number of molecules, sites or subunits per partner or assembly.

For the molecule `O=C[C@H](O)COP(=O)(O)O` [glyceraldehyde 3-phosphate], the “Glyceraldehyde 3-phosphate / Ki” value in series [1] was found to be 1900 ± 900 µM; on SaPdx1 it was 3300 ± 900 µM.

B1: Staphylococcus aureus Pdx2 (glutaminase subunit), wild type (enzyme, S. aureus, UniProt A5IQ73 1-186, looked up)
chain: MKIGVLALQGAVREHIRHIELSGHEGIAVKKVEQLEEIEGLILPGGESTTLRRLMNLYGFKEALQNSTLPMFGTCAGLIVLAQDIVGEEGYLNKLNITVQRNSFGRQVDSFETELDIKGIATDIEGVFIRAPHIEKVGQGVDILCKVNEKIVAVQQGKYLGVSFHPELTDDYRVTDYFINHIVKKA
B1: in series [2], the “increase in the apparent kcat/KM ratio of PLP synthesis (G3P varied) for the SaPLP complex compared to SaPdx1 + ammonia” value was 5.7 fold and the “increase in the apparent kcat/KM ratio of PLP synthesis (R5P varied) for the SaPLP complex compared to SaPdx1 + ammonia” value is about 21 fold.

B2: Staphylococcus aureus Pdx2 H165N (enzyme)
chain: MKIGVLALQGAVREHIRHIELSGHEGIAVKKVEQLEEIEGLILPGGESTTLRRLMNLYGFKEALQNSTLPMFGTCAGLIVLAQDIVGEEGYLNKLNITVQRNSFGRQVDSFETELDIKGIATDIEGVFIRAPHIEKVGQGVDILCKVNEKIVAVQQGKYLGVSFNPELTDDYRVTDYFINHIVKKA
notes: also called SaPdx2mut; SaPdx2_(H165N); source: E. coli Rosetta (DE3), purified (Ni-NTA, TEV cleavage, second Ni-NTA, SEC on Superdex 75)
In the case of B2, in series [3], the “stoichiometry N” value is 1. With B3, the “stoichiometry N” value in series [4] came to 6.

These data come from publication PMC11237949, “Structure and dynamics of the staphylococcal pyridoxal 5-phosphate synthase complex reveal transient interactions at the enzyme interface” (The Journal of Biological Chemistry, 2024).
